In PMC8990068:

Each substance was assayed against Fc gamma receptor I (human) (UniProt P12314) (assay: AlphaScreen or HTRF; AlphaLISA human FCGR binding kit (PerkinElmer), competition: donor and acceptor beads coated with unmodified IgG and FcγR-I; serial dilutions of SPGR-engineered IgG in 1X HiBlock buffer (1 mg/ml to 0.1 μg/ml); 25 °C, 90 min; signal at 615 nm).
Chain of UniProt P12314 (P12314 16-292): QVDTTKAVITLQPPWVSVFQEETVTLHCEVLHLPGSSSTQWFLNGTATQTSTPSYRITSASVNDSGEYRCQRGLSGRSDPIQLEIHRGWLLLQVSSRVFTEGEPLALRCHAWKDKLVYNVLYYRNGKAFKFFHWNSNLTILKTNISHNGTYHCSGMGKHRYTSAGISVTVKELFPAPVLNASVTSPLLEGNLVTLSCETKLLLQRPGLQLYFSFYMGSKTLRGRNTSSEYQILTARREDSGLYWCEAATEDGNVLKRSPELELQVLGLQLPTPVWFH

signal reduction at 0.1 μg/ml [%]	Substance
60	SPGR-engineered human serum IgG, sample 6, mono-antennary glycans (after GnT-I and GalT) (antibody)
60	SPGR-engineered human serum IgG, sample 2, bi-antennary (F)A2 glycans (terminating with GlcNAc) (antibody)
60	SPGR-engineered human serum IgG, sample 8, bisecting glycans terminating with GlcNAc (antibody)
60	SPGR-engineered human serum IgG, sample 5, mono-antennary glycans terminating with GlcNAc (antibody)
60	SPGR-engineered human serum IgG, sample 7, mono-antennary glycans (after GnT-I, GalT and SialylT) (antibody)
60	SPGR-engineered human serum IgG, sample 9, bisecting glycans (after GnT-III and GalT) (antibody)
60	SPGR-engineered human serum IgG, sample 3, bi-antennary glycans with terminal galactose (antibody)
60	SPGR-engineered human serum IgG, sample 10, bisecting sialylated glycans (FA2BG2S2 route) (antibody)
60	SPGR-engineered human serum IgG, sample 1, (F)M3 glycans (terminating with mannose) (antibody)
60	SPGR-engineered human serum IgG, sample 4, bi-antennary sialylated glycans (antibody)
